In experiment [1] the target is T1, Recombinant protein HER3-ECD-Fc (RnD Systems) (human, UniProt P21860 20-643).
T1 construct: extracellular domain; also called Human ErbB3 ECD-Fc protein (RnD); not shown: Fc part of the bought fusion
Nature of the experiment: SPR, Biacore T100: antibody captured on an anti-Fc CM5 chip, HER3-ECD-Fc injected as analyte. The protocol:
Among the hybridomas described above, two antibodies, A3 and A4, were further selected for a biochemical and functional characterization. In particular, the following assays have been performed: [0174] Bioacore analysis. Affinity for HER3 and kₒₙ/koff were determined by Surface Plasmon Resonance using a Biacore T100 instrument. A biosensor chip CM5 (GE Healthcare) was covalently bound to an anti-Fc (8000 RU) and then treated with antibodies at different concentrations (<1000 RU). Recombinant protein HER3-ECD-Fc (RnD Systems) in HBS-EP buffer at the analyte concentration 1:1 was injected for 2 minutes at 30 μl/min, followed by a 10 minutes dissociation phase. [0175] Cross-reactivity with mouse HER3 receptor and with other human ErbB receptors. […] After a wash in FACS buffer, an anti-mouse IgG conjugated with Phycoerythrin (PE, Becton Dickinson) was added and cells were analyzed by a FACSCalibur (Becton Dickinson). […] After 2 washes with PBS, 0.05% Tween20, the signal was measured by incubation with a biotinylated goat anti-NRG-1β antibody (RnD Systems) and Streptavidin conjugated with peroxidase and utilizing an HRP substrate (Pierce). Data were acquired with an ELISA reader at 450 nm. […]

For a further experiment, the target named is T2, HER2 (human, UniProt P04626 23-1255).
T2 construct: whole, on cells; also called ErbB2
Kind of experiment: flow cytometry on transiently transfected CHO cells. On the technique in general: In flow cytometry, cells or beads pass a laser one at a time.

In the next experiment the target is T3, HER1/EGFR (human, UniProt P00533 25-1210).
T3 construct: whole, on cells
The description is as above.

Another experiment deals with T4, HER4 (human, UniProt Q15303 26-1308).
T4 construct: whole, on cells; also called ErbB4
T4 sequence (Q15303 26-1308): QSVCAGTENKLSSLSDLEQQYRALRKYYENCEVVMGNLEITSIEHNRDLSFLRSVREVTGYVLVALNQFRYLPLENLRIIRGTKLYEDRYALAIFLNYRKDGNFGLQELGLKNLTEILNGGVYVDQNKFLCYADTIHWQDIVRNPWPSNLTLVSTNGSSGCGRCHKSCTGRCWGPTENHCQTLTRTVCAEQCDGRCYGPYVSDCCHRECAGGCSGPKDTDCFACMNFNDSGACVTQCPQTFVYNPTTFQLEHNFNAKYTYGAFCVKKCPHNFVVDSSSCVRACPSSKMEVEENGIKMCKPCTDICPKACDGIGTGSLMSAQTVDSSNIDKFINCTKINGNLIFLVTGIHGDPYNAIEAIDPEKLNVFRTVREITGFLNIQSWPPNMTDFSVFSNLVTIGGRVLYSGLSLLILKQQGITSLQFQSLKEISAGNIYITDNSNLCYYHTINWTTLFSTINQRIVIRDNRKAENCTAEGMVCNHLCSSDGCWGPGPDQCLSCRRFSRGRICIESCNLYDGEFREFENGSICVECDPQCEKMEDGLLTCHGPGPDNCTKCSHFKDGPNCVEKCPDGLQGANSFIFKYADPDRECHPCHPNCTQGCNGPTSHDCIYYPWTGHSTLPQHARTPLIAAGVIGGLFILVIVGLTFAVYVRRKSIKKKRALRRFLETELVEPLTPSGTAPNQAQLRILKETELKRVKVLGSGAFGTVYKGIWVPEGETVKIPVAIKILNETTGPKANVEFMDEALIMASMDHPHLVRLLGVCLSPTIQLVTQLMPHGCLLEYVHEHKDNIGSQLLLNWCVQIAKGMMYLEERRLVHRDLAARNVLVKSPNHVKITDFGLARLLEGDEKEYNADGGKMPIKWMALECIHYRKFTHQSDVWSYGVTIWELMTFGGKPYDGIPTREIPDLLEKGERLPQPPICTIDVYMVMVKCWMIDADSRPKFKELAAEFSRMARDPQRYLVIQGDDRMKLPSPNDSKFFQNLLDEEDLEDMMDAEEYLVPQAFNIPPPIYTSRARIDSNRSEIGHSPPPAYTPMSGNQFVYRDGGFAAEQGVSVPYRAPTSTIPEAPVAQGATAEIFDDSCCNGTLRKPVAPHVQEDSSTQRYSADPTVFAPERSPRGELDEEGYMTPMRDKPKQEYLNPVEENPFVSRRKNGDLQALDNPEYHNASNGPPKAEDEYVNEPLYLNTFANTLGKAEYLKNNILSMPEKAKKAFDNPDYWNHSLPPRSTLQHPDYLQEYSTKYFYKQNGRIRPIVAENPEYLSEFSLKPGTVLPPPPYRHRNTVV
The description is as above.

Experiment [2] has as its target T1, Recombinant protein HER3-ECD-Fc (RnD …). Nature of the experiment: competition ELISA (NRG Ligand Blocking): HER3-ECD-Fc on the plate, antibody, then 10 nM NRG-1β, bound NRG detected. For orientation: An ELISA detects its analyte on a solid surface through an enzyme-linked reagent.
Experiment [3] concerns the target T5, mouse HER3 (mouse, UniProt Q61526 20-1339).
T5 construct: whole, on cells; also called murine HER3
Nature of the experiment: flow cytometry on CHO cells transiently transfected with mouse HER3.

Experiment [4] deals with T5, mouse HER3. Nature of the experiment: flow cytometry on CHO cells transiently transfected with mouse HER3, antibody at 10 µg/ml.
For experiment [5], the target named is T6, human ErbB3 15mer peptide QCNGHCFGPNPNQCC (human).
T6 construct: One of 158 15mer peptides of human ErbB3 overlapping by 11 residues (Jerini Peptide Technologies), coated on the ELISA plate
T6 peptide: QCNGHCFGPNPNQCC
Nature of the experiment: ELISA on plate-coated 15mer peptides, A3 at 1 µg/ml. The protocol: To identify the epitope recognized by A3 antibody, a human ErbB3 peptide collection consisting of 158 15mer peptides overlapping by 11 residues (Jerini Peptide Technologies, Berlin, Germany) has been utilized. Each peptide was resuspended in DMSO at 40 mg/ml and diluted in sodium carbonate buffer (10 mM, pH 9.6) at 1 μg/ml in 96well plates (Nunc Maxisorp) at a volume of 100 μl/well and incubated over night at 4° C. Human ErbB3 ECD-Fc protein (RnD) and buffer coated wells were used as positive and negative controls of the assay, respectively. The day after, plates were washed with 200 μl PBS 1× pH 7.4 and blocked with PBS 5% BSA for 2 hr at room temperature. After three washes with PBS, 0.05% Tween20 (PBST), plates were incubated for 2 hours at room temperature with A3 antibody diluted at 1 μg/ml in PBST, 1% BSA for 2 hours at room temperature. Plates were then washed three times in PBST and then incubated with 1/5000 diluted goat anti-mouse IgG HRP conjugated (Abcam) for one hour. After three washing in PBST, 100 μl/well 3, 3′, 5, 5′-Tetramethylbenzidine (TMB) Liquid Substrate (Sigma) were added and the reaction stopped 20 minutes later with 50 μl/well Stop Reagent for TMB Substrate (Sigma). OD₄₅₀ was determined at an ELISA reader (Perkin Elmer).

T1 sequence (P21860 20-643): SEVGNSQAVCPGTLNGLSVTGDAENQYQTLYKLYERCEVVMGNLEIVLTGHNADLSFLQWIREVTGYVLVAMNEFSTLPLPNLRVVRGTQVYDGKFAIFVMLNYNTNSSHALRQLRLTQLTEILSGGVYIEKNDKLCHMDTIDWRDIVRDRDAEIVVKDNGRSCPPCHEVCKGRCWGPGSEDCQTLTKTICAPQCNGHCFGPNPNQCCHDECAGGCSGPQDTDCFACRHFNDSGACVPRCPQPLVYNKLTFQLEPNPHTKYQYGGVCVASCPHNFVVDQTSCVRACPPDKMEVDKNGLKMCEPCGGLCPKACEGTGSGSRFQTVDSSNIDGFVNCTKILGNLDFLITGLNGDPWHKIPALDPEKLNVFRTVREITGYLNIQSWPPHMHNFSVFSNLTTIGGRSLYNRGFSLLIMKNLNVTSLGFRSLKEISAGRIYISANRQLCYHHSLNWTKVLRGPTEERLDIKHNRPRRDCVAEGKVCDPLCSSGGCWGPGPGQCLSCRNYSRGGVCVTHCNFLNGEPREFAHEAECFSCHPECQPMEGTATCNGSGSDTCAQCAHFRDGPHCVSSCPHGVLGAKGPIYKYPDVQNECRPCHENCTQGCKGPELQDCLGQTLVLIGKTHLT
T5 sequence (Q61526 20-1339): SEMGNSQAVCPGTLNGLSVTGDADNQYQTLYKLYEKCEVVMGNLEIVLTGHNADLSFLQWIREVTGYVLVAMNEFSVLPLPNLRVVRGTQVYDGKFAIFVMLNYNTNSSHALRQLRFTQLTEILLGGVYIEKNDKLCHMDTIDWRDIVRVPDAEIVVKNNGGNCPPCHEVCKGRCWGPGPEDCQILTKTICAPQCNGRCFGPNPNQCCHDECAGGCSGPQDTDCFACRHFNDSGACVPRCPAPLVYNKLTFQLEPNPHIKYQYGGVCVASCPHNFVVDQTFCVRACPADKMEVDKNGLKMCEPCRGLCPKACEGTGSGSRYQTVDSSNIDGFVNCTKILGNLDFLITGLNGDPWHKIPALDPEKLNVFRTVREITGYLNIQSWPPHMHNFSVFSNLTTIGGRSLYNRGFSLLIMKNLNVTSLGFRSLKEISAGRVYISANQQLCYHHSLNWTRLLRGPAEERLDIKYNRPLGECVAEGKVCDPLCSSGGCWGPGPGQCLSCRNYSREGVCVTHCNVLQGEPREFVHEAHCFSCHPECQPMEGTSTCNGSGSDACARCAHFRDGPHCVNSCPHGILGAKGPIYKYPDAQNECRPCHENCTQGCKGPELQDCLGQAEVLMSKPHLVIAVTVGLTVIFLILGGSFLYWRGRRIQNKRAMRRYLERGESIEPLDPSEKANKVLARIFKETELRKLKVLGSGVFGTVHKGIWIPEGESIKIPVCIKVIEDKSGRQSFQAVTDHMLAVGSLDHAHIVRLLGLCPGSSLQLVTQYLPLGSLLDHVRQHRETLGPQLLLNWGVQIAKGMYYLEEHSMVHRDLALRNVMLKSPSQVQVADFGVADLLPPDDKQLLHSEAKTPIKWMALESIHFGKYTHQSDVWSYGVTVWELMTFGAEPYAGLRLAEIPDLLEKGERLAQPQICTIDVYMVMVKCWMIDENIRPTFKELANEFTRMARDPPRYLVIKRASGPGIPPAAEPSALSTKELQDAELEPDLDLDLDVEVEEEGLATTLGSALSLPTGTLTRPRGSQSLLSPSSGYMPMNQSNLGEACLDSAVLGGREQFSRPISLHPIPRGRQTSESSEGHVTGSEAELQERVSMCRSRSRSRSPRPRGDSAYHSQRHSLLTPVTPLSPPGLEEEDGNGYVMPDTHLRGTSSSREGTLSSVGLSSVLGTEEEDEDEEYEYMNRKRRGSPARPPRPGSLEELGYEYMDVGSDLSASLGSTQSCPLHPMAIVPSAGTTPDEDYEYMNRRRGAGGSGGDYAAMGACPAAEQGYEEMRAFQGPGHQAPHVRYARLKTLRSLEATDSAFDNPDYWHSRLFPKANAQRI

B1: Antibody A4 (antibody, V domains shown)
VH: QVQLQQPGSELVRPGASVKLSCKASGYTFTIFWIHWVKQRPGQGLEWIGNIYPGSGGTNYDEKFKSKATLTVDTFSSTAYMQLSSLTSEDSAVYYCTRWGTGKDYWGQGTTLKVSS
VL: QIVLTQSPAIMSASPGEKVTMTCRARSSVSSSYLHWYQQKPGSSPKLWIYSTSNLALGVPARFSGSGSGTSYSLTISSVEAEDAATYYCQQYDSSPFTFGTGTKLEIKR
notes: Murine monoclonal IgG with a kappa light chain, from a hybridoma; also called murine A4; A4 monoclonal antibody
Consider B1, for which the Kd (as a rule, the free concentration of one partner at which half of the binding sites on the other are occupied at equilibrium, for simple one-to-one binding) in experiment [1] worked out at 2.4 nM. Besides, the binding result in the experiment with HER2, with HER1/EGFR, with HER4 and in the experiment with mouse HER3 [3] was “no binding (tested: 10 µg/ml)” each time. Also, in experiment [2], the IC50 (usually the concentration needed to halve the response being measured) came to 2.8 nM.

B2: Antibody A3 (antibody, V domains shown)
VH: QVTLKESGPGKLQPSQTLSLTCSFSGFSLSTYGMGVGWIRQPLGKGLEWLANIWWNDDKYYNSALKSRLTISKDTSNNQVFLKISSVDTADAATYYCVQIANPYWYFDVWGAGTTVTVSS
VL: DVLMTQTPLSLPVSLGDQASISCRSSQSIVHSYGNTYLEWYLQKPGQSPKLLIYRVSNRFSGVPDRFSGSGSGTDFTLKISRVEAEDLGVYYCFQGSHVPFTFGTGTKLEIKR
notes: Murine monoclonal IgG from a hybridoma of BALB/c mice immunised with HER3 H584F DNA; also called A3 monoclonal antibody
On to B2, for which, in experiment [1], the Kd was 7.4 nM. In addition, the binding result in the experiment with mouse HER3 [4] was “binds”; in the experiment with HER2, “no binding (tested: 10 µg/ml)”; with HER1/EGFR, “no binding (tested: 10 µg/ml)”; with HER4, “no binding (tested: 10 µg/ml)”; in experiment [5] it was “binds”. Further, the IC50 in experiment [2] is 1.1 nM.

Source of the values: patent US20140017259A1 (TAKIS S R L, published 2014).
